How the values were obtained:
Assay in all cases: ELISA
mAb 2219 (V3) = conditions: mAbs (10 µg/ml); gp120s from virus lysates; parent: est. 2.2; read off a plot
mAb 1361 (V2i) = conditions: mAbs (10 µg/ml); gp120s from virus lysates; parent: est. 2.8; read off a plot
mAb 1331 (CD4bs) = conditions: mAbs (10 µg/ml); gp120s from virus lysates; parent: est. 2.0; read off a plot
mAb 1393A (V2i) = conditions: mAbs (10 µg/ml); gp120s from virus lysates; parent: est. 2.2; read off a plot
mAb 830A (V2i) = conditions: mAbs (10 µg/ml); gp120s from virus lysates; parent: est. 2.1; read off a plot
mAb 1357 (V2i) = conditions: mAbs (10 µg/ml), gp120s from virus lysates
[1] = target: recombinant CD4-IgG2 protein (UniProt P01730); conditions: 10 µg/ml; gp120s from virus lysates; parent: est. 3.7; read off a plot
mAb 1418 (Ctrl) = conditions: mAbs (10 µg/ml); gp120s from virus lysates; parent: est. 0.21; read off a plot
mAb 2158 (V2i) = conditions: mAbs (10 µg/ml); gp120s from virus lysates; parent: est. 2.0; read off a plot

**Q.** gp120 of ZM109 WT R153E was tested. Which response (mAb 2219 (V3)) did it give?
**A.** 2.6 OD 405nm

**Q.** And the response (mAb 1361 (V2i))?
**A.** 2.3 OD 405nm

**Q.** And the response (mAb 1331 (CD4bs))?
**A.** 1.9 OD 405nm

**Q.** What about the response (mAb 1393A (V2i)) of the same substance?
**A.** 2.4 OD 405nm

**Q.** And the response (mAb 830A (V2i))?
**A.** 2 OD 405nm

**Q.** What about the ratio to parent (mAb 1357 (V2i)) of the same substance?
**A.** 3 x

**Q.** And the response (mAb 1357 (V2i); parent: est. 0.46, read off a plot)?
**A.** 1.5 OD 405nm

**Q.** What about the response [1] of the same substance?
**A.** 3.6 OD 405nm

**Q.** And the response (mAb 1418 (Ctrl))?
**A.** 0.17 OD 405nm

**Q.** What about the response (mAb 2158 (V2i)) of the same substance?
**A.** 1.7 OD 405nm
